The source of these data is patent publication US20180346564A1.

The labels stand for the following.
T1: phosphorylated peptide (PRHLSNVS(pS)TGSIDMVD) of Example 10 (human)
T1 sequence (peptide, phosphoserine (pS) at peptide position 9): PRHLSNVSSTGSIDMVD

B1: Humanized × [MAPT_H] mAb (Ta1505-VL46_G34T/VH11) IgG4 S228P/Kappa (CX) (antibody, V domains shown)
VH: EVQLVESGGGLVQPGGSLRLSCAASGFTFSSFALNWVRQAPGKGLEWVGHIRSKTNNYATFYAASVKDRFTVSRDDSQNTAYLQMNSLKTEDTATYYCVRRGPRDSWFGYWGQGTLVTVSS
VL: DIVMTQSPLSLPVTLGEPASISCRSSQSIVHSNTNTYLEWYLQKPGQSPQLLIYTVSNRFSGVPDRFSGSGSGTDFTLKISRVEAEDLGVYYCFQGSHLPLTFGGGTKVEIKR
B2: Humanized × [MAPT_H] mAb (Ta1505-VL46_N33T/VH11) IgG4 S228P/Kappa (CX) (antibody, V domains shown)
VH: EVQLVESGGGLVQPGGSLRLSCAASGFTFSSFALNWVRQAPGKGLEWVGHIRSKTNNYATFYAASVKDRFTVSRDDSQNTAYLQMNSLKTEDTATYYCVRRGPRDSWFGYWGQGTLVTVSS
VL: DIVMTQSPLSLPVTLGEPASISCRSSQSIVHSTGNTYLEWYLQKPGQSPQLLIYTVSNRFSGVPDRFSGSGSGTDFTLKISRVEAEDLGVYYCFQGSHLPLTFGGGTKVEIKR
B3: Humanized × [MAPT_H] mAb (Ta1505-VL46 S28N/VH11) IgG4 S228P/Kappa (CX) (antibody, V domains shown)
VH: EVQLVESGGGLVQPGGSLRLSCAASGFTFSSFALNWVRQAPGKGLEWVGHIRSKTNNYATFYAASVKDRFTVSRDDSQNTAYLQMNSLKTEDTATYYCVRRGPRDSWFGYWGQGTLVTVSS
VL: DIVMTQSPLSLPVTLGEPASISCRSSQNIVHSNGNTYLEWYLQKPGQSPQLLIYTVSNRFSGVPDRFSGSGSGTDFTLKISRVEAEDLGVYYCFQGSHLPLTFGGGTKVEIKR
B4: Humanized × [MAPT_H] mAb (Ta1505-VL46_N33S/VH11) IgG4 S228P/Kappa (CX) (antibody, V domains shown)
VH: EVQLVESGGGLVQPGGSLRLSCAASGFTFSSFALNWVRQAPGKGLEWVGHIRSKTNNYATFYAASVKDRFTVSRDDSQNTAYLQMNSLKTEDTATYYCVRRGPRDSWFGYWGQGTLVTVSS
VL: DIVMTQSPLSLPVTLGEPASISCRSSQSIVHSSGNTYLEWYLQKPGQSPQLLIYTVSNRFSGVPDRFSGSGSGTDFTLKISRVEAEDLGVYYCFQGSHLPLTFGGGTKVEIKR
B5: Humanized × [MAPT_H] mAb (Ta1505-VL46_N33Q/VH11) IgG4 S228P/Kappa (CX) (antibody, V domains shown)
VH: EVQLVESGGGLVQPGGSLRLSCAASGFTFSSFALNWVRQAPGKGLEWVGHIRSKTNNYATFYAASVKDRFTVSRDDSQNTAYLQMNSLKTEDTATYYCVRRGPRDSWFGYWGQGTLVTVSS
VL: DIVMTQSPLSLPVTLGEPASISCRSSQSIVHSQGNTYLEWYLQKPGQSPQLLIYTVSNRFSGVPDRFSGSGSGTDFTLKISRVEAEDLGVYYCFQGSHLPLTFGGGTKVEIKR
B6: Humanized × [MAPT_H] mAb (Ta1505-VL46_N33Q_G34A/VH11) IgG4 S228P/Kappa (CX) (antibody, V domains shown)
VH: EVQLVESGGGLVQPGGSLRLSCAASGFTFSSFALNWVRQAPGKGLEWVGHIRSKTNNYATFYAASVKDRFTVSRDDSQNTAYLQMNSLKTEDTATYYCVRRGPRDSWFGYWGQGTLVTVSS
VL: DIVMTQSPLSLPVTLGEPASISCRSSQSIVHSQANTYLEWYLQKPGQSPQLLIYTVSNRFSGVPDRFSGSGSGTDFTLKISRVEAEDLGVYYCFQGSHLPLTFGGGTKVEIKR

In the assay the target is T1, phosphorylated peptide (PRHLSNVS(pS)TGSIDMVD) of Example 10 (human). Briefly: ELISA, pS413 peptide coated at 1 ug/ml, antibody titrated, goat anti-human-HRP, ABTS, OD405 (Example 10). For orientation: In an ELISA, binding on a coated surface is turned into a signal by an enzyme label.
As for B1, the EC50 (read off the curve) – broadly, the midpoint of the concentration-response curve – was determined as 0.01 µg/mL. As for B2, the figure is 0.01 µg/mL; as for B3, 0.006 µg/mL. As for B4, the figure is 0.02 µg/mL. Then B5, with 0.02 µg/mL; and B6, with 0.02 µg/mL.
